Laboratory results as given in US20230242651A1 (published 2023).

T1: human interleukin-23 receptor (IL23R) (human, UniProt Q5VWK5 24-355, limits assumed)
T1 construct: also called human IL23R
T1 sequence (looked up): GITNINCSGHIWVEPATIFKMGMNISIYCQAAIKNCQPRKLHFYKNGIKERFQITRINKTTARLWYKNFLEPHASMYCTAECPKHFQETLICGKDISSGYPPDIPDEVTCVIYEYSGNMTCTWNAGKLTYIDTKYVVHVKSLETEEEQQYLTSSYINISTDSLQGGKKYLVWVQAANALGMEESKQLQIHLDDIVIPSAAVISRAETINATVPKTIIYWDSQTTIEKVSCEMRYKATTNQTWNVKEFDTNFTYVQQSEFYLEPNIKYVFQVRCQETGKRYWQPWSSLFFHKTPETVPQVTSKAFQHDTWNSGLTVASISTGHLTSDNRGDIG


Tests used:
[1] = target: T1, human interleukin-23 receptor (IL23R); experiment: SPR; KD of the capped scFv over KD of its uncapped counterpart
Method in brief: (§1)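 Binding to human IL23R was assessed by surface plasmon resonance, with values given as rate constants and dissociation constant or as a λ-capped over uncapped dissociation-constant ratio. The binders were humanized rabbit variable domains in single-chain variable fragment format on consensus germline framework pairs, with or without a λ-cap. Each was produced in E. coli as inclusion bodies and refolded after solubilization.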

[2] = target: T1, human interleukin-23 receptor (IL23R); experiment: SPR, scFv
Method in brief: as §1

[3] = target: T1, human interleukin-23 receptor (IL23R); experiment: SPR, scFv (summary table)
Method in brief: as §1

[4] = target: T2, human TNF (human, UniProt P01375 77-233); experiment: SPR, scFv; footnote: interference with SPR measurement
T2 sequence (P01375 77-233 limits assumed): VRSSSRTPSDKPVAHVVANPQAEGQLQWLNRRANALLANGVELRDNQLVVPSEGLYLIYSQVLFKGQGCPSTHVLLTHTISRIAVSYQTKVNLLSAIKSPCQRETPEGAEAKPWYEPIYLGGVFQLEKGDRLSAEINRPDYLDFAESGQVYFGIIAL

[5] = target: T2, human TNF; experiment: SPR, scFv

Row | Ratio (capped/uncapped) of KD [1] | Kd [2] | koff [2] | kon [2] | Kd [3] | Kd [4] | koff [4] | kon [4] | Kd [5] | koff [5] | kon [5] | Binder
1 | 0.4 | 0.0481 nM | 0.000112 s⁻¹ | 2.33e+06 M⁻¹ s⁻¹ | 0.0481 nM | – | – | – | – | – | – | Vκ2/VH4 consensus λ-capped, human IL23R specific scFv (scFv, scFv VL-linker-VH, made in E. coli; also called Vκ2VH4 capped) scFv: DIVMTQSPLSLPVTPGEPASISCQASENIYSFLAWYLQKPGQSPQLLIYSASKLAAGVPDRFSGSGSGTDFTLKISRVEAEDVGVYYCQQTNRYSNPDIYNVFGGGTKLTVLGGGGGSGGGGSGGGGSGGGGSQVQLQESGPGLVKPSETLSLTCTVSGIDFNSNYYMCWIRQPPGKGLEWIGCIYVGSHVNTYYANWAKGRVTISVDTSKNQFSLKLSSVTAADTAVYYCATSGSSVLYFKFWGQGTLVTVSS
2 | 1.7 | 0.0397 nM | 7.77e-05 s⁻¹ | 1.95e+06 M⁻¹ s⁻¹ | 0.0397 nM | – | – | – | – | – | – | Vκ2/VH3 consensus λ-capped, human IL23R specific scFv (scFv, scFv VL-linker-VH, made in E. coli; also called Vκ2VH3 capped) scFv: DIVMTQSPLSLPVTPGEPASISCQASENIYSFLAWYLQKPGQSPQLLIYSASKLAAGVPDRFSGSGSGTDFTLKISRVEAEDVGVYYCQQTNRYSNPDIYNVFGGGTKLTVLGGGGGSGGGGSGGGGSGGGGSEVQLVESGGGLVQPGGSLRLSCAASGIDFNSNYYMCWVRQAPGKGLEWVSCIYVGSHVNTYYANWAKGRFTISRDNSKNTLYLQMNSLRAEDTAVYYCATSGSSVLYFKFWGQGTLVTVSS
3 | 0.2 | 0.0916 nM | 0.000152 s⁻¹ | 1.66e+06 M⁻¹ s⁻¹ | 0.0916 nM | – | – | – | – | – | – | Vκ3/VH2 consensus λ-capped, human IL23R specific scFv (scFv, scFv VL-linker-VH, made in E. coli; also called Vκ3VH2 capped) scFv: DIVLTQSPATLSLSPGERATLSCQASENIYSFLAWYQQKPGQAPRLLIYSASKLAAGVPARFSGSGSGTDFTLTISSLEPEDFAVYYCQQTNRYSNPDIYNVFGGGTKLTVLGGGGGSGGGGSGGGGSGGGGSQVQLKESGPALVKPTQTLTLTCTFSGIDFNSNYYMCWIRQPPGKALEWLACIYVGSHVNTYYANWAKGRLTISKDTSKNQVVLTMTNMDPVDTATYYCATSGSSVLYFKFWGQGTLVTVSS
4 | 0.3 | 0.0772 nM | 0.000184 s⁻¹ | 2.39e+06 M⁻¹ s⁻¹ | 0.0772 nM | – | – | – | – | – | – | Vκ2/VH1A consensus λ-capped, human IL23R specific scFv (scFv, scFv VL-linker-VH, made in E. coli; also called Vκ2VH1A capped) scFv: DIVMTQSPLSLPVTPGEPASISCQASENIYSFLAWYLQKPGQSPQLLIYSASKLAAGVPDRFSGSGSGTDFTLKISRVEAEDVGVYYCQQTNRYSNPDIYNVFGGGTKLTVLGGGGGSGGGGSGGGGSGGGGSQVQLVQSGAEVKKPGSSVKVSCKASGIDFNSNYYMCWVRQAPGQGLEWMGCIYVGSHVNTYYANWAKGRVTITADESTSTAYMELSSLRSEDTAVYYCATSGSSVLYFKFWGQGTLVTVSS
5 | 1.6 | 0.476 nM | 0.000715 s⁻¹ | 1.5e+06 M⁻¹ s⁻¹ | 0.476 nM | – | – | – | – | – | – | Vκ2/VH5 consensus λ-capped, human IL23R specific scFv (scFv, scFv VL-linker-VH, made in E. coli; also called Vκ2VH5 capped) scFv: DIVMTQSPLSLPVTPGEPASISCQASENIYSFLAWYLQKPGQSPQLLIYSASKLAAGVPDRFSGSGSGTDFTLKISRVEAEDVGVYYCQQTNRYSNPDIYNVFGGGTKLTVLGGGGGSGGGGSGGGGSGGGGSEVQLVQSGAEVKKPGESLKISCKGSGIDFNSNYYMCWVRQMPGKGLEWMGCIYVGSHVNTYYANWAKGQVTISADKSISTAYLQWSSLKASDTAMYYCATSGSSVLYFKFWGQGTLVTVSS
6 | 2 | 0.585 nM | 0.00117 s⁻¹ | 2e+06 M⁻¹ s⁻¹ | 0.585 nM | – | – | – | – | – | – | Vκ3/VH1A consensus λ-capped, human IL23R specific scFv (scFv, scFv VL-linker-VH, made in E. coli; also called Vκ3VH1A capped) scFv: DIVLTQSPATLSLSPGERATLSCQASENIYSFLAWYQQKPGQAPRLLIYSASKLAAGVPARFSGSGSGTDFTLTISSLEPEDFAVYYCQQTNRYSNPDIYNVFGGGTKLTVLGGGGGSGGGGSGGGGSGGGGSQVQLVQSGAEVKKPGSSVKVSCKASGIDFNSNYYMCWVRQAPGQGLEWMGCIYVGSHVNTYYANWAKGRVTITADESTSTAYMELSSLRSEDTAVYYCATSGSSVLYFKFWGQGTLVTVSS
7 | 0.4 | 0.181 nM | 0.000506 s⁻¹ | 2.8e+06 M⁻¹ s⁻¹ | 0.181 nM | – | – | – | – | – | – | Vκ3/VH1B consensus λ-capped, human IL23R specific scFv (scFv, scFv VL-linker-VH, made in E. coli; also called Vκ3VH1B capped) scFv: DIVLTQSPATLSLSPGERATLSCQASENIYSFLAWYQQKPGQAPRLLIYSASKLAAGVPARFSGSGSGTDFTLTISSLEPEDFAVYYCQQTNRYSNPDIYNVFGGGTKLTVLGGGGGSGGGGSGGGGSGGGGSQVQLVQSGAEVKKPGASVKVSCKASGIDFNSNYYMCWVRQAPGQGLEWMGCIYVGSHVNTYYANWAKGRVTMTRDTSISTAYMELSSLRSEDTAVYYCATSGSSVLYFKFWGQGTLVTVSS
8 | 1 | 0.245 nM | 0.000349 s⁻¹ | 1.42e+06 M⁻¹ s⁻¹ | 0.245 nM | – | – | – | – | – | – | Vκ1/VH6 consensus λ-capped, human IL23R specific scFv (scFv, scFv VL-linker-VH, made in E. coli; also called Vκ1VH6 capped) scFv: DIQMTQSPSSLSASVGDRVTITCQASENIYSFLAWYQQKPGKAPKLLIYSASKLAAGVPSRFSGSGSGTDFTLTISSLQPEDFATYYCQQTNRYSNPDIYNVFGGGTKLTVLGGGGGSGGGGSGGGGSGGGGSQVQLQQSGPGLVKPSQTLSLTCAISGIDFNSNYYMCWIRQSPGRGLEWLGCIYVGSHVNTYYANWAKGRITINPDTSKNQFSLQLNSVTPEDTAVYYCATSGSSVLYFKFWGQGTLVTVSS
9 | 1.7 | 0.398 nM | 0.000671 s⁻¹ | 1.69e+06 M⁻¹ s⁻¹ | 0.398 nM | – | – | – | – | – | – | Vκ1/VH5 consensus λ-capped, human IL23R specific scFv (scFv, scFv VL-linker-VH, made in E. coli; also called Vκ1VH5 capped) scFv: DIQMTQSPSSLSASVGDRVTITCQASENIYSFLAWYQQKPGKAPKLLIYSASKLAAGVPSRFSGSGSGTDFTLTISSLQPEDFATYYCQQTNRYSNPDIYNVFGGGTKLTVLGGGGGSGGGGSGGGGSGGGGSEVQLVQSGAEVKKPGESLKISCKGSGIDFNSNYYMCWVRQMPGKGLEWMGCIYVGSHVNTYYANWAKGQVTISADKSISTAYLQWSSLKASDTAMYYCATSGSSVLYFKFWGQGTLVTVSS
10 | 0.3 | 0.887 nM | 0.000475 s⁻¹ | 535000 M⁻¹ s⁻¹ | 0.887 nM | – | – | – | – | – | – | Vκ2/VH6 consensus λ-capped, human IL23R specific scFv (scFv, scFv VL-linker-VH, made in E. coli; also called Vκ2VH6 capped) scFv: DIVMTQSPLSLPVTPGEPASISCQASENIYSFLAWYLQKPGQSPQLLIYSASKLAAGVPDRFSGSGSGTDFTLKISRVEAEDVGVYYCQQTNRYSNPDIYNVFGGGTKLTVLGGGGGSGGGGSGGGGSGGGGSQVQLQQSGPGLVKPSQTLSLTCAISGIDFNSNYYMCWIRQSPGRGLEWLGCIYVGSHVNTYYANWAKGRITINPDTSKNQFSLQLNSVTPEDTAVYYCATSGSSVLYFKFWGQGTLVTVSS
11 | – | – | – | – | – | 1.82 nM | 0.000529 s⁻¹ | 290000 M⁻¹ s⁻¹ | – | – | – | VK3/VH3 consensus λ-capped, TNF-specific scFv (scFv) scFv: DIVLTQSPATLSLSPGERATLSCQASQSISDWLAWYQQKPGQAPRLLIYGASRLASGVPARFSGSGSGTDFTLTISSLEPEDFAVYYCQQGWSDSYVDNLFGGGTKLTVLGGGGGSGGGGSGGGGSGGGGSEVQLVESGGGLVQPGGSLRLSCAASGFSLSSGAMSWVRQAPGKGLEWVSVIISSGATYYASWAKGRFTISRDNSKNTLYLQMNSLRAEDTAVYYCARGGPDDSNSMGTFDPWGQGTLVTVSS
12 | – | – | – | – | – | – | – | – | 0.225 nM | 9.41e-05 s⁻¹ | 419000 M⁻¹ s⁻¹ | VK1/VH3 consensus λ-capped, TNF-specific scFv (scFv, also called capped Vκ1/VH3 consensus molecule (TNF CDRs)) scFv: DIQMTQSPSSLSASVGDRVTITCQASQSISDWLAWYQQKPGKAPKLLIYGASRLASGVPSRFSGSGSGTDFTLTISSLQPEDFATYYCQQGWSDSYVDNLFGGGTKLTVLGGGGGSGGGGSGGGGSGGGGSEVQLVESGGGLVQPGGSLRLSCAASGFSLSSGAMSWVRQAPGKGLEWVSVIISSGATYYASWAKGRFTISRDNSKNTLYLQMNSLRAEDTAVYYCARGGPDDSNSMGTFDPWGQGTLVTVSS
13 | – | – | – | – | – | – | – | – | 0.265 nM | 0.000105 s⁻¹ | 395000 M⁻¹ s⁻¹ | VK1/VH3 consensus uncapped, TNF-specific scFv (scFv, also called control molecule (Vκ1/VH3 consensus)) scFv: DIQMTQSPSSLSASVGDRVTITCQASQSISDWLAWYQQKPGKAPKLLIYGASRLASGVPSRFSGSGSGTDFTLTISSLQPEDFATYYCQQGWSDSYVDNLFGQGTKVEIKRGGGGSGGGGSGGGGSGGGGSEVQLVESGGGLVQPGGSLRLSCAASGFSLSSGAMSWVRQAPGKGLEWVSVIISSGATYYASWAKGRFTISRDNSKNTLYLQMNSLRAEDTAVYYCARGGPDDSNSMGTFDPWGQGTLVTVSS
